Laboratory results: patent US20090005253A1 (AVENTIS PHARMA S A, published 2009)

How the values were obtained:
[1] = target: T1, DNA-binding domain (DBD) of GAL4p expressed alone from pDBT (Saccharomyces cerevisiae, UniProt P04386 1-147, limits assumed); test: yeast two-hybrid control (pRB34+pDBT), URA3 reporter in strain Y187
T1 construct: Negative control partner

[2] = target: T2, fusion protein DBD-mdm2 (GAL4 DBD fused to the entire Mdm2 human protein) (Saccharomyces cerevisiae; human, UniProt P04386 1-147; Q00987 1-491, limits assumed); test: yeast two-hybrid control (pTAL20+pDBT-mdm2), URA3 reporter in strain Y187
T2 construct: also called pDBT-mdm2

[3] = target: T1, DNA-binding domain (DBD) of GAL4p …; test: reverse two-hybrid UI strain yRB49; growth not affected on medium with 1 mM 3-AT

B1: fusion protein AD-Fe65 (GAL4 activation domain fused to amino acids 152 to 708 of Fe65) (other)
chain: MDKAELIPEPPKKKRKVELGTAANFNQSGNIADSSLSFTFTNSSNGPNLITTQTNSQALSQPIASSNVHDNFMNNEITASKIDDGNNSKPLSPGWTDQTAYNAFGITTGMFNTTTMDDVYNYLFDDEDTPPNPKKEIEFKAAGEAEEEEEDDDDEEEEEDLSSPPGLPEPLESVEAPPRPQALTDGPREHSKSASLLFGMRNSAASDEDSSWATLSQGSPSYGSPEDTDSFWNPNAFETDSDLPAGWMRVQDTSGTYYWHIPTGTTQWEPPGRASPSQGSSPQEESQLTWTGFAHGEGFEDGEFWKDEPSDEAPMELGLKEPEEGTLTFPAQSLSPEPLPQEEEKLPPRNTNPGIKCFAVRSLGWVEMTEEELAPGRSSVAVNNCIRQLSYHKNNLHDPMSGGWGEGKDLLLQLEDETLKLVEPQSQALLHAQPIISIRVWGVGRDSGRDFAYVARDKLTQMLKCHVFRCEAPAKNIATSLHEICSKIMAERRNARCLVNGLSLDHSKLVDVPFQVEFPAPKNELVQKFQVYYLGNVPVAKPVGVDVINGALESVLSSSSREQWTPSHVSVAPATLTILHQQTEAVLGECRVRFLSFLAVGRDVHTFAFIMAAGPASFCCHMFWCEPNAASLSEAVQAACMLRYQKCLDARSQASTSCLPAPPAESVARRVGWTVRRGVQSLWGSLKPKRLGAHTP
notes: also called pRB34
B1: no binding [1].

B2: activation domain (AD) of GAL4p expressed alone from pTAL20 (other, Saccharomyces cerevisiae, UniProt P04386 768-881, looked up)
chain: ANFNQSGNIADSSLSFTFTNSSNGPNLITTQTNSQALSQPIASSNVHDNFMNNEITASKIDDGNNSKPLSPGWTDQTAYNAFGITTGMFNTTTMDDVYNYLFDDEDTPPNPKKE
notes: Negative control partner
B2: no binding [2]; no binding [3].
